Patent US20250011363A1, “OPTIMIZED SHORTENED PEPTIDE THAT BINDS TO ACETYLCHOLINE RECEPTOR, AND USE THEREOF” (SKINMED CO., LTD., priority 2021, published 2025)

Biological target: acetylcholine receptor (Homo sapiens, UniProt P02708)
Test: SPR binding affinity (RU) of optimized 5mer/6mer/7mer peptides, Examples 6-7
Settings: SPR, Resonance Units; peptides tested at 10 μM; 6mer-1 Bottom sequence (Table 11)
Method in brief: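 Synthetic 5mer and 6mer peptides, built from frequent or infrequent amino-acid combinations, were tested at 10 μM for binding to the human acetylcholine receptor by surface plasmon resonance. Binding is reported in response units (RU).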

Chain of acetylcholine receptor (P02708 21-457): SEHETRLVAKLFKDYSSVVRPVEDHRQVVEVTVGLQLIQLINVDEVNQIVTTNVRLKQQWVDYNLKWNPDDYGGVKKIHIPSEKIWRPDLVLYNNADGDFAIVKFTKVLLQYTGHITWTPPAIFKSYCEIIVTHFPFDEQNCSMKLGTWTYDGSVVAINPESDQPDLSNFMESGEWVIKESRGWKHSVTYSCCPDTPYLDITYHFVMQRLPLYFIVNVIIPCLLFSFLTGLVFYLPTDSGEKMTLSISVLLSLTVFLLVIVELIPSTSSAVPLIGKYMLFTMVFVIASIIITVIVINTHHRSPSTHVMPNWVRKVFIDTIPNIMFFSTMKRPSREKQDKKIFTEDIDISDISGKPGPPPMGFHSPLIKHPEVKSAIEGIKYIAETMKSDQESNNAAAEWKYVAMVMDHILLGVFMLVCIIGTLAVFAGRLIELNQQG

Point of comparison: 6mer-1-764 (RRNPFK), Binding affinity 24 Ru. Against it:
- 6mer-1-696 (KKHCNR) — lower, 18 Ru
- 6mer-1-697 (RRPTNR) — lower, 13 Ru
- 6mer-1-698 (KRFNHK) — higher, 27 Ru
- 6mer-1-699 (RRTTVR) — higher, 28 Ru
- 6mer-1-700 (RKKMWK) — lower, 19 Ru
- 6mer-1-701 (RRKTWR) — lower, 13 Ru
- 6mer-1-702 (KRDWVK) — higher, 31 Ru
- 6mer-1-703 (KKFHPR) — lower, 18 Ru
- 6mer-1-704 (RRMCER) — lower, 16 Ru
- 6mer-1-705 (KRTEWR) — lower, 12 Ru
- 6mer-1-706 (KRMKDR) — higher, 29 Ru
- 6mer-1-707 (KRFWPK) — higher, 26 Ru
- 6mer-1-708 (KKKHEK) — lower, 14 Ru
- 6mer-1-709 (KKFKPK) — higher, 29 Ru
- 6mer-1-710 (KKMHHR) — lower, 21 Ru
- 6mer-1-711 (RRATHR) — lower, 19 Ru
- 6mer-1-712 (KKPSNK) — the same, 24 Ru
- 6mer-1-713 (KKATNK) — lower, 20 Ru
- 6mer-1-714 (KRTSFK) — higher, 25 Ru
- 6mer-1-715 (KRMMVK) — lower, 18 Ru
- 6mer-1-716 (RRMPFK) — lower, 11 Ru
- 6mer-1-717 (KRHEDR) — lower, 22 Ru
- 6mer-1-718 (RKFKAR) — lower, 23 Ru
- 6mer-1-719 (KKDAEK) — higher, 27 Ru
- 6mer-1-720 (RRKHKR) — lower, 11 Ru
- 6mer-1-721 (RKAMEK) — lower, 22 Ru
- 6mer-1-722 (RRNKVR) — lower, 12 Ru
- 6mer-1-723 (RKMPAK) — higher, 33 Ru
- 6mer-1-724 (KRPKNK) — lower, 19 Ru
- 6mer-1-725 (KKDKPK) — higher, 32 Ru
- 6mer-1-726 (KKHSMK) — higher, 33 Ru
- 6mer-1-727 (RKANGK) — higher, 29 Ru
- 6mer-1-728 (RRDNAR) — lower, 23 Ru
- 6mer-1-729 (KKKSGK) — lower, 23 Ru
- 6mer-1-730 (KRATFR) — lower, 13 Ru
- 6mer-1-731 (RRIKAR) — lower, 18 Ru
- 6mer-1-732 (RRAAVR) — higher, 26 Ru
- 6mer-1-733 (KKKMFK) — lower, 21 Ru
- 6mer-1-734 (RRTHER) — lower, 21 Ru
- 6mer-1-735 (RKDKER) — lower, 19 Ru
- 6mer-1-736 (KKATDK) — lower, 15 Ru
- 6mer-1-737 (RRKNAR) — higher, 27 Ru
- 6mer-1-738 (RKYHHR) — higher, 25 Ru
- 6mer-1-739 (RKCCEK) — higher, 32 Ru
- 6mer-1-740 (RKDNKR) — higher, 26 Ru
- 6mer-1-741 (RKEAGR) — the same, 24 Ru
- 6mer-1-742 (RRFHWR) — lower, 14 Ru
- 6mer-1-743 (KKTMVR) — lower, 14 Ru
- 6mer-1-744 (RKHEIK) — higher, 31 Ru
- 6mer-1-745 (KKTMEK) — lower, 11 Ru
- 6mer-1-746 (RKMSVK) — the same, 24 Ru
- 6mer-1-747 (KKTMDR) — the same, 24 Ru
- 6mer-1-748 (RKHNGR) — the same, 24 Ru
- 6mer-1-749 (RKPHWR) — higher, 33 Ru
- 6mer-1-750 (KRENIK) — higher, 33 Ru
- 6mer-1-751 (RRTNFK) — higher, 27 Ru
- 6mer-1-752 (KRPTEK) — lower, 16 Ru
- 6mer-1-753 (KKDTHK) — lower, 12 Ru
- 6mer-1-754 (RKKKMK) — the same, 24 Ru
- 6mer-1-755 (RRANMR) — higher, 25 Ru
- 6mer-1-756 (RKAKMK) — higher, 33 Ru
- 6mer-1-757 (RKDNEK) — higher, 26 Ru
- 6mer-1-758 (KKYHHR) — higher, 33 Ru
- 6mer-1-759 (RKMTWR) — lower, 23 Ru
- 6mer-1-760 (KRMMVR) — lower, 21 Ru
- 6mer-1-761 (RKETFR) — higher, 33 Ru
- 6mer-1-762 (KKTKAR) — lower, 13 Ru
- 6mer-1-763 (RRDCAK) — lower, 12 Ru
- 6mer-1-765 (KRASPK) — higher, 25 Ru
- 6mer-1-766 (RKCTIR) — lower, 15 Ru
- 6mer-1-767 (KRTPDK) — lower, 18 Ru
- 6mer-1-768 (RKFEWK) — higher, 32 Ru
- 6mer-1-769 (RKMPVK) — lower, 14 Ru
- 6mer-1-770 (RKTNAR) — higher, 29 Ru
- 6mer-1-771 (KKMDIK) — lower, 17 Ru
- 6mer-1-772 (KRNCAK) — lower, 12 Ru
- 6mer-1-773 (KRTEIR) — higher, 29 Ru
- 6mer-1-774 (KKEMER) — lower, 21 Ru
- 6mer-1-775 (KKYPWR) — lower, 12 Ru
- 6mer-1-776 (KKTSIK) — lower, 13 Ru
- 6mer-1-777 (RRHNHR) — lower, 16 Ru
- 6mer-1-778 (RRDDFR) — higher, 28 Ru
- 6mer-1-779 (RRPDAR) — higher, 30 Ru
- 6mer-1-780 (KRKCWR) — the same, 24 Ru
- 6mer-1-781 (RRHWDK) — lower, 16 Ru
- 6mer-1-782 (KKNAWK) — higher, 30 Ru
- 6mer-1-783 (KKNEFK) — higher, 29 Ru
- 6mer-1-784 (KKFTPK) — higher, 33 Ru
- 6mer-1-785 (KKTCER) — lower, 19 Ru
- 6mer-1-786 (KRIKEK) — higher, 26 Ru
- 6mer-1-787 (KKESIK) — lower, 16 Ru
- 6mer-1-788 (RKIPKK) — lower, 22 Ru
- 6mer-1-789 (KRMMPK) — lower, 19 Ru
- 6mer-1-790 (KKPNPK) — lower, 12 Ru
- 6mer-1-791 (RKPDDK) — lower, 13 Ru
- 6mer-1-792 (KRKDKK) — higher, 30 Ru
- 6mer-1-793 (KKTPNR) — higher, 31 Ru
- 6mer-1-794 (RKYEPK) — lower, 11 Ru
- 6mer-1-795 (KKCHMR) — lower, 12 Ru
- 6mer-1-796 (RRHAFK) — higher, 28 Ru
- 6mer-1-797 (RRAWNK) — lower, 22 Ru

Same assay, conditions: SPR, peptides tested at 10 μM; 6mer-1 Bottom sequence (Table 11)

Point of comparison: 6mer-1-807 (RRDKNR), Binding affinity 13 Ru. Against it:
- 6mer-1-798 (RRDCFR) — higher, 18 Ru
- 6mer-1-799 (RRKKKR) — higher, 30 Ru
- 6mer-1-800 (RREHIR) — higher, 15 Ru
- 6mer-1-801 (KKCAVK) — higher, 18 Ru
- 6mer-1-802 (RKYHGR) — higher, 32 Ru
- 6mer-1-803 (RKMKHK) — higher, 31 Ru
- 6mer-1-804 (KRDPFR) — higher, 31 Ru
- 6mer-1-805 (KRDTMK) — higher, 24 Ru
- 6mer-1-806 (RKKTIR) — lower, 12 Ru
- 6mer-1-808 (RRFEKK) — higher, 24 Ru
- 6mer-1-809 (KKKSNR) — lower, 12 Ru
- 6mer-1-810 (RKCNAR) — lower, 12 Ru
- 6mer-1-811 (KRHCHK) — higher, 16 Ru
- 6mer-1-812 (RKDHMK) — higher, 26 Ru
- 6mer-1-813 (RREDFK) — higher, 15 Ru
- 6mer-1-814 (KKCNAK) — higher, 15 Ru
